Patent publication US12076390 (Dana-Farber, dated 2024)

Target: HA on infectious virus A/Brisbane/10/07 (H3N2-BR07) (influenza A virus A/Brisbane/10/07 …)
Assay: cell-based or functional assay

B1: 3I14 VLD94N IgG1 (antibody, V domains shown)
VH: QVQLLESGGGVVQPGRSLRLSCAASGFTFSNYGMHWVRQAPGKGLEWVAIISFDGSKKYYANSVKGRSTISRDNSKNTLSLQMNSLGPEDTALYYCAKLPSPYYFDSRFVWVAASAFHFWGQGILVTVSS
VL: NFMLTQPPSASGTPGQRVTISCSGSSSNIGGNTVHWFQQLPGTAPKLLIYTNSLRPSGVPDRFSGSKSGTSASLAISGLQSEDEADYYCAAWDNSLNGQVFGGGTKLTVL
**Q.** With B1 as the binder, how does the “IC50, neutralization of infectious H3-BR07 virus” value read?
**A.** The value was 337 ng/mL.
